According to US20180250395A1 (Janssen / Centocor, published 2018):

What was measured:
[1] = target: T1, Cyno CD47 ECD protein, His-tagged, monomer (cyno); assay: ProteOn SPR; cyno KD / human KD
T1 construct: extracellular domain; also called cynomolgus CD47

[2] = target: T2, recombinant human CD47 extracellular domain (ECD), His-tagged, monomer (human, UniProt Q08722 19-141); assay: ProteOn SPR; mAb captured, ECD monomer as analyte
T2 construct: C-terminal 6xHis tag; monomeric fraction from Superdex 200; also called human CD47 ECD; CD47-ECD monomer

[3] = target: T1, Cyno CD47 ECD protein, His-tagged, …; assay: ProteOn SPR; mAb captured, ECD monomer as analyte
[4] = target: T3, recombinant human CD47 extracellular domain (ECD), His-tagged, dimer (human, UniProt Q08722 19-141); assay: MSD; CD47-ECD dimer binding to captured SIRP alpha-Fc, mAb 10 µg/ml
T3 construct: Dimeric fraction of the same His-tagged ECD; also called His-tagged CD47-ECD dimer protein

KD Ratio Cyno/Human [1] | Kd [2] [nM] | Kd [3] [nM] | % SIRP alpha Inhibition [4] [%] | Binder
1.8 | 2.33 | 4.25 | 71.6 | C47B213 (antibody, V domains shown, human IgG2sigma/kappa) VH: EVQLVQSGAEVKKPGESLKISCKGSGYSFDDSWIGWVRQMPGKGLEWMGIIYPGDSDTRYSPSFQGQVTISADKSISTAYLQWSSLKASDTAVYYCARVGRFASHQLDYWGQGTLVTVSS VL: EIVLTQSPATLSLSPGERATLSCRASQSVNKALAWYQQKPGQAPRLLIYGASNRATGIPARFSGSGSGTDFTLTISSLEPEDFAVYYCQQGKGWPFTFGQGTKVEIK
0.7 | 7.67 | 5.56 | 83.1 | C47B217 (antibody, V domains shown, human IgG2sigma/kappa) VH: EVQLVQSGAEVKKPGESLKISCKGSGYSFTDSWIGWVRQMPGKGLEWMGIIYPGDSDTRYSPSFQGQVTISADKSISTAYLQWSSLKASDTAVYYCARVGRFASHQLDYWGQGTLVTVSS VL: EIVLTQSPATLSLSPGERATLSCRASQSVNKALAWYQQKPGQAPRLLIYGASNRATGIPARFSGSGSGTDFTLTISSLEPEDFAVYYCQQGKGWPFTFGQGTKVEIK
0.6 | 2.3 | 1.4 | 99.7 | C47B214 (antibody, V domains shown, human IgG2sigma/kappa) VH: EVQLVQSGAEVKKPGESLKISCKGSGYSFDDSWIGWVRQMPGKGLEWMGIIYPGDSDTRYSPSFQGQVTISADKSISTAYLQWSSLKASDTAVYYCARVGRFASHQLDYWGQGTLVTVSS VL: EIVLTQSPATLSLSPGERATLSCRASQSVNNRLAWYQQKPGQAPRLLIHWASTRAIGIPARFSGSGSGTDFTLTISSLEPEDFAVYYCQQGASWPFTFGQGTKVEIK
1.1 | 3.31 | 3.76 | 96.3 | C47B225 (antibody, V domains shown, human IgG2sigma/kappa) VH: EVQLVQSGAEVKKPGESLKISCKGSGYSFDDYWIGWVRQMPGKGLEWMGIIYPGDSDTRYSPSFQGQVTISADKSISTAYLQWSSLKASDTAVYYCARVGRFASHQLDYWGQGTLVTVSS VL: EIVLTQSPATLSLSPGERATLSCRASQSVNKALAWYQQKPGQAPRLLIYGASNRATGIPARFSGSGSGTDFTLTISSLEPEDFAVYYCQQGKGWPFTFGQGTKVEIK
0.6 | 2.56 | 1.58 | 98.9 | C47B218 (antibody, V domains shown, human IgG2sigma/kappa) VH: EVQLVQSGAEVKKPGESLKISCKGSGYSFTDSWIGWVRQMPGKGLEWMGIIYPGDSDTRYSPSFQGQVTISADKSISTAYLQWSSLKASDTAVYYCARVGRFASHQLDYWGQGTLVTVSS VL: EIVLTQSPATLSLSPGERATLSCRASQSVNNRLAWYQQKPGQAPRLLIHWASTRAIGIPARFSGSGSGTDFTLTISSLEPEDFAVYYCQQGASWPFTFGQGTKVEIK
0.9 | 5.21 | 4.5 | 95 | C47B221 (antibody, V domains shown, human IgG2sigma/kappa) VH: EVQLVQSGAEVKKPGESLKISCKGSGYSFTDYWIGWVRQMPGKGLEWMGIIYPGDSDTRYSPSFQGQVTISADKSISTAYLQWSSLKASDTAVYYCARVGRFASHQLDYWGQGTLVTVSS VL: EIVLTQSPATLSLSPGERATLSCRASQSVNKALAWYQQKPGQAPRLLIYGASNRATGIPARFSGSGSGTDFTLTISSLEPEDFAVYYCQQGKGWPFTFGQGTKVEIK
0.7 | 2.05 | 1.44 | 99.6 | C47B215 (antibody, V domains shown, human IgG2sigma/kappa) VH: EVQLVQSGAEVKKPGESLKISCKGSGYSFDDSWIGWVRQMPGKGLEWMGIIYPGDSDTRYSPSFQGQVTISADKSISTAYLQWSSLKASDTAVYYCARVGRFASHQLDYWGQGTLVTVSS VL: EIVLTQSPATLSLSPGERATLSCRASQSVGSRLAWYQQKPGQAPRLLIYWASTRATGIPARFSGSGSGTDFTLTISSLEPEDFAVYYCQQGAYWPFTFGQGTKVEIK
0.6 | 0.902 | 0.574 | 100 | C47B227 (antibody, V domains shown, human IgG2sigma/kappa) VH: EVQLVQSGAEVKKPGESLKISCKGSGYSFDDYWIGWVRQMPGKGLEWMGIIYPGDSDTRYSPSFQGQVTISADKSISTAYLQWSSLKASDTAVYYCARVGRFASHQLDYWGQGTLVTVSS VL: EIVLTQSPATLSLSPGERATLSCRASQSVGSRLAWYQQKPGQAPRLLIYWASTRATGIPARFSGSGSGTDFTLTISSLEPEDFAVYYCQQGAYWPFTFGQGTKVEIK
0.9 | 4.3 | 3.74 | 98.6 | C47B220 (antibody, V domains shown, human IgG2sigma/kappa) VH: EVQLVQSGAEVKKPGESLKISCKGSGYSFTDSWIGWVRQMPGKGLEWMGIIYPGDSDTRYSPSFQGQVTISADKSISTAYLQWSSLKASDTAVYYCARVGRFASHQLDYWGQGTLVTVSS VL: EIVLTQSPATLSLSPGERATLSCRASQSVSNRQAWYQQKPGQAPRLLIHSASNRATGIPARFSGSGSGTDFTLTISSLEPEDFAVYYCQQGRSWPFTFGQGTKVEIK
0.6 | 0.872 | 0.543 | 100 | C47B226 (antibody, V domains shown, human IgG2sigma/kappa; also called C27B226) VH: EVQLVQSGAEVKKPGESLKISCKGSGYSFDDYWIGWVRQMPGKGLEWMGIIYPGDSDTRYSPSFQGQVTISADKSISTAYLQWSSLKASDTAVYYCARVGRFASHQLDYWGQGTLVTVSS VL: EIVLTQSPATLSLSPGERATLSCRASQSVNNRLAWYQQKPGQAPRLLIHWASTRAIGIPARFSGSGSGTDFTLTISSLEPEDFAVYYCQQGASWPFTFGQGTKVEIK
0.8 | 3.35 | 2.74 | 99.8 | C47B216 (antibody, V domains shown, human IgG2sigma/kappa) VH: EVQLVQSGAEVKKPGESLKISCKGSGYSFDDSWIGWVRQMPGKGLEWMGIIYPGDSDTRYSPSFQGQVTISADKSISTAYLQWSSLKASDTAVYYCARVGRFASHQLDYWGQGTLVTVSS VL: EIVLTQSPATLSLSPGERATLSCRASQSVSNRQAWYQQKPGQAPRLLIHSASNRATGIPARFSGSGSGTDFTLTISSLEPEDFAVYYCQQGRSWPFTFGQGTKVEIK
0.7 | 1.14 | 0.807 | 100 | C47B223 (antibody, V domains shown, human IgG2sigma/kappa) VH: EVQLVQSGAEVKKPGESLKISCKGSGYSFTDYWIGWVRQMPGKGLEWMGIIYPGDSDTRYSPSFQGQVTISADKSISTAYLQWSSLKASDTAVYYCARVGRFASHQLDYWGQGTLVTVSS VL: EIVLTQSPATLSLSPGERATLSCRASQSVGSRLAWYQQKPGQAPRLLIYWASTRATGIPARFSGSGSGTDFTLTISSLEPEDFAVYYCQQGAYWPFTFGQGTKVEIK
0.8 | 1.12 | 0.842 | 99.9 | C47B222 (human IgG2sigma) (antibody, V domains shown, human IgG2sigma/kappa; also called IgG2 Fc-silent C47B222) VH: EVQLVQSGAEVKKPGESLKISCKGSGYSFTDYWIGWVRQMPGKGLEWMGIIYPGDSDTRYSPSFQGQVTISADKSISTAYLQWSSLKASDTAVYYCARVGRFASHQLDYWGQGTLVTVSS VL: EIVLTQSPATLSLSPGERATLSCRASQSVNNRLAWYQQKPGQAPRLLIHWASTRAIGIPARFSGSGSGTDFTLTISSLEPEDFAVYYCQQGASWPFTFGQGTKVEIK
3.9 | 2.15 | 8.32 | 16.1 | C47B229 (antibody, V domains shown, human IgG2sigma/kappa) VH: EVQLVQSGAEVKKPGESLKISCKGSGYSFDDAWIGWVRQMPGKGLEWMGIIYPGDSDTRYSPSFQGQVTISADKSISTAYLQWSSLKASDTAVYYCARVGRFASHQLDYWGQGTLVTVSS VL: EIVLTQSPATLSLSPGERATLSCRASQSVNKALAWYQQKPGQAPRLLIYGASNRATGIPARFSGSGSGTDFTLTISSLEPEDFAVYYCQQGKGWPFTFGQGTKVEIK
0.9 | 2.69 | 2.53 | 99.3 | C47B228 (antibody, V domains shown, human IgG2sigma/kappa) VH: EVQLVQSGAEVKKPGESLKISCKGSGYSFDDYWIGWVRQMPGKGLEWMGIIYPGDSDTRYSPSFQGQVTISADKSISTAYLQWSSLKASDTAVYYCARVGRFASHQLDYWGQGTLVTVSS VL: EIVLTQSPATLSLSPGERATLSCRASQSVSNRQAWYQQKPGQAPRLLIHSASNRATGIPARFSGSGSGTDFTLTISSLEPEDFAVYYCQQGRSWPFTFGQGTKVEIK
0.9 | 2.46 | 2.19 | 99.7 | C47B224 (antibody, V domains shown, human IgG2sigma/kappa) VH: EVQLVQSGAEVKKPGESLKISCKGSGYSFTDYWIGWVRQMPGKGLEWMGIIYPGDSDTRYSPSFQGQVTISADKSISTAYLQWSSLKASDTAVYYCARVGRFASHQLDYWGQGTLVTVSS VL: EIVLTQSPATLSLSPGERATLSCRASQSVSNRQAWYQQKPGQAPRLLIHSASNRATGIPARFSGSGSGTDFTLTISSLEPEDFAVYYCQQGRSWPFTFGQGTKVEIK
0.6 | 2.58 | 1.66 | 99.4 | C47B219 (antibody, V domains shown, human IgG2sigma/kappa) VH: EVQLVQSGAEVKKPGESLKISCKGSGYSFTDSWIGWVRQMPGKGLEWMGIIYPGDSDTRYSPSFQGQVTISADKSISTAYLQWSSLKASDTAVYYCARVGRFASHQLDYWGQGTLVTVSS VL: EIVLTQSPATLSLSPGERATLSCRASQSVGSRLAWYQQKPGQAPRLLIYWASTRATGIPARFSGSGSGTDFTLTISSLEPEDFAVYYCQQGAYWPFTFGQGTKVEIK
